B1: CPEB3 Ribozyme (parent)
chain: GGGGGCCACAGCAGAAGCGUUCACGUCGCGGCCCCUGUCAGAUUCUGGUGAAUCUGCGAAUUCUGCUGU

Variants of: B1
Assay: self-cleavage, relative activity (ratio to wild type); higher = more cleavage; co-transcriptional

Variant	self-cleavage
C6G G50U	0.37
C6G G50A	0.42
G5U U46C	0.254
G5U U46A	0.24
G5U U46G	0.321
C6A A42G	0.609
C6A A42C	0.221
C6U A52C	0.956
C6U A52U	0.996
C6A A40C	0.177
C6A A40G	0.426
C6A A40U	0.346
C6A U44C	0.455
C6A U44A	0.373
C6A U44G	0.416
C6U A8U	1.01
C6U A8G	0.813
C6U A8C	0.941
C6G U69G	0.639
C6G U69A	0.589
C6G U69C	0.797
C6A U36C	0.247
C6G U67G	0.374
C6G U67C	0.344

Variant	self-cleavage
C6A G31C	0.762
C6A G31U	0.986
C6A G31A	0.775
C6G G65A	0.109
C6G G65U	0.226
C6A C9G	1.02
C6A C9A	0.961
C6U A59U	0.733
C6U A59G	0.961
C6U A59C	0.586
C6G C9A	0.651
C6G C9G	0.445
C6A C22U	0.0847
C6A C22A	0.165
C6A G11U	0.448
C6A G11A	0.536
C6A C39U	0.416
C6A C39A	0.231
C6G G56A	0.204
C6G G56C	0.199
C6G G56U	0.152
C6A A8U	0.607
C6A A8C	0.733
C6G U38A	0.248

Variant	self-cleavage
C6G U38C	0.227
C6G G41A	0.122
C6G G41U	0.252
G5U U62A	0.123
C6A G47A	0.712
C6A G47C	0.689
C6A G47U	0.661
G5U U38C	0.174
C6G A52C	0.264
C6G A52G	0.343
C6A C7A	0.143
C6A U69C	1.03
C6A U69A	0.884
C6A U69G	0.838
C6G G14A	0.0825
C6G G14C	0.0817
C6U A23C	0.953
C6U A23U	0.999
C6A G56C	0.225
C6A G58A	0.443
C6A G58U	0.695
G5U U44A	0.125
G5U U44C	0.192
G5U U44G	0.0852

Variant	self-cleavage
C6U A51C	0.905
C6G U26G	0.224
C6G U26A	0.188
C6G A13G	0.0914
C6G A23C	0.302
C6A C27U	0.159
C6A C27A	0.154
C6A C27G	0.122
C6A G28A	0.138
C6A G28U	0.163
C6A G28C	0.155
C6G G31U	0.967
C6G G31A	0.753
C6A U64G	0.469
C6A U64A	0.307
C6G C35U	0.15
C6G C35A	0.0719
C6A G14C	0.101
C6A G14A	0.128
C6A G14U	0.116
C6A G17C	0.115
C6A G17U	0.119
C6G C54U	0.398
C6G C54G	0.0918

Variant	self-cleavage
C6G G25C	0.0497
C6G G25U	0.0634
C6A C18A	0.167
C6A C18G	0.145
C6A C18U	0.146
G5U U64A	0.109
G5U U64C	0.195
G5U U64G	0.194
C6A C24A	0.162
C6A C24G	0.0842
C6G C29U	0.0888
C6G C29G	0.0434
C6G A42U	0.154
C6G A42C	0.257
C6G G11C	0.17
C6G G58U	0.402
C6G G58C	0.294
C6G G58A	0.2
C6A G68U	0.939
C6A G68A	0.881
C6A G68C	0.889
G5U U36A	0.0704
G5U U36G	0.343
G5U U53G	0.152

Variant	self-cleavage
C6G U20A	0.0487
C6G U43C	0.39
C6A C32A	0.349
C6A C32U	0.123
C6A C32G	0.147
C6G C66A	0.18
C6G C66U	0.316
C6U A40U	0.835
C6U A40C	0.506
C6A U21A	0.554
C6A U21G	0.179
C6A U21C	0.287
C6A G19A	0.105
C6A G19C	0.107
C6A U61G	0.242
C6A U61C	0.15
C6G G48U	0.391
C6G G48C	0.35
C6U A13C	0.85
C6A U26A	0.256
C6A U26G	0.265
G5U U49A	0.316
G5U U49C	0.232
C6G U44C	0.281

Variant	self-cleavage
C6G U44A	0.224
C6G U44G	0.183
G5U G50C	0.341
G5U G50U	0.313
C6G C39G	0.174
C6G A51U	0.353
C6G C45A	0.227
C6G C45U	0.362
C6G U49G	0.31
C6G U49C	0.417
C6G U49A	0.467
G5U U61C	0.0722
G5U U61A	0.108
C6U C24A	0.582
G5U G68U	0.793
G5U G68A	0.886
G5U G68C	0.716
C6A C34U	0.339
C6A U38C	0.35
C6A U38G	0.117
C6G C7U	0.176
C6A G50C	0.594
C6A G50U	0.727
